Columns and labels:
[1] = biological target: hen egg-white lysozyme (Hewl) (hen (chicken)) (UniProt P00698)
[2] = biological target: human lysozyme (HL) (human) (UniProt P61626)
human lysozyme (HL) = biological target: T1, human lysozyme (HL) (human, UniProt P61626 19-148, NT-647-NHS fluorescent dye (in the MST experiment only)); test: MST; NT-647-labelled rHL (8.3 nM) constant, 16 two-fold serial dilutions of 2.5 mM rNm-ACPI mixed 1:1; 50 mM Tris pH 7.4, 150 mM NaCl, 10 mM MgCl2, 0.05% (v/v) Tween-20; 20% and 40% MST power, LED 20%; triplicate; conditions: both partners purified
T1 construct: human C-type lysozyme; MST used labelled recombinant HL; also called rHL; recombinant HL; source: bought: Sigma-Aldrich (recombinant HL, MST)
T1 sequence (looked up): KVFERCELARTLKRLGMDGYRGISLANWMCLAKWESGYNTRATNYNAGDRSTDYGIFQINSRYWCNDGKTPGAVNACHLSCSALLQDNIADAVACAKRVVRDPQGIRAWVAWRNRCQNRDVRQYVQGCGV

Sequence of hen egg-white lysozyme (Hewl) (hen (chicken)) (P00698 19-147): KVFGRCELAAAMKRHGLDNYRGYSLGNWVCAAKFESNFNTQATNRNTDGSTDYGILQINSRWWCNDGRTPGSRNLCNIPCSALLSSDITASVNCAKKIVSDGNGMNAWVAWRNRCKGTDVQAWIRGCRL

“Nm-ACPI triple mutant Asn79Ala/Tyr84Ala/Gly95Ala (natural protein)” was tested, and the inhibition of Hewl (EnzChek assay, initial rate period) compared with wild-type Nm-ACPI (% reduced activity) [1] was 39.

Molecule “recombinant Neisseria gonorrhoeae Adhesin Complex Protein (rNg-ACP) (natural protein)” has a protection of M. lysodeikticus cells (1 mg/ml) against lysis by HL (2 μg/ml), OD 595 nm over 2 h and at 24 h, rNg-ACP 0-0.5 μg/ml; ~30–60% protection at 0.1 μg/ml, not protective below 0.1 μg/ml [2] of 80 to 100 % protection.

B1: recombinant Neisseria meningitidis Adhesin Complex Protein Type I (rNm-ACPI) (natural protein)
chain: AGTDNPTVAKKTVSYVCQQGKKVKVTYGFNKQGLTTYASAVINGKRVQMPVNLDKSDNVETFYGKEGGYVLGTGVMDGKSYRKQPIMITAPDNQIVFKDCSPR
notes: Adhesin Complex Protein (ACP) Type I, encoded by Allele 1, N. meningitidis serogroup B strain MC58 (NMB2095/NEIS2075); mature polypeptide of 103 residues (amino acids 22-124), mass 12,306 Da with the tag; disulphide bond Cys38-Cys121; Cloned between NdeI and XhoI of pET22b(+); The same construct, 15N-labelled, was used for NMR; also called NMB2095; NEIS2075; source: E. coli BL21 (DE3) pLysS, …
In the case of B1, the Kd (human lysozyme (HL)) is reported as 11 µM.

Reference: publication PMC5507604, “Structure of the Neisseria Adhesin Complex Protein (ACP) and its role as a novel lysozyme inhibitor” (PLoS Pathogens, 2017)
